The experiment concerns the target Tau from human Alzheimer's Disease brain lysate (Braak stage VI) (human), P10636. As to the kind of experiment: ELISA on Tau captured from AD brain lysate, curve without blocking peptide. As to conditions: remark: other sources report otherwise. (In general: In an ELISA, binding on a coated surface is turned into a signal by an enzyme label.)

The results in this text go back to patent US20240076361A1.

Usually EC50 (read off the curve) stands for the concentration that produces a half-maximal response. Low readings indicate greater potency, high ones weaker potency.

Sequence of Tau from human Alzheimer's Disease brain lysate (Braak stage VI) (human), P10636 (P10636 other isoform, or with tags, fused parts or gaps limits assumed): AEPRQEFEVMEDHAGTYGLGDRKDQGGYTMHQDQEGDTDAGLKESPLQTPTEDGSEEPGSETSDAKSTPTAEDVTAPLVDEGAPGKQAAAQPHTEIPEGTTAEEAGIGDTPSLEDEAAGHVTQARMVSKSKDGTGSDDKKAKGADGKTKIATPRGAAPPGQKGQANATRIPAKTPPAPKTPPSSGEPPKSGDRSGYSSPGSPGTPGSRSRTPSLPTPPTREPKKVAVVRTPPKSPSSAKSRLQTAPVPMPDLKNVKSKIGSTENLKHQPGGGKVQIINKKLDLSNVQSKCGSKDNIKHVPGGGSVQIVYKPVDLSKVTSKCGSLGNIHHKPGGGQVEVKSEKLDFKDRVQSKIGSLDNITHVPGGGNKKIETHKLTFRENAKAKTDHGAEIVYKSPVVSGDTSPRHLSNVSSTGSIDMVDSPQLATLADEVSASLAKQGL

B1: PT3 comparator antibody (antibody)
chain 1: EVKLVESGGDLVKPGGSLKLSCAASGFTFSSYAMSWVRQNPEKRLEWVASISKGGNTYYPNSVKGRFTISRDNARNILYLQMSSLRSEDTALYYCARGWGDYGWFAYWGQVTLVTVSA
chain 2: DIKMTQSPSSMYASLGERVTITCKASQDINRYLNWFQQKPGKSPKTLIYRANRLLDGVPSRFSGSGSGQDYSLTISSLDYEDMGIYYCLQYDEFPLTFGDGTKLELK
modifications: here or on the partner: native phosphorylation and other post-translational modifications, not defined
B1 had a 50% effective concentration (EC50 (read off the curve)) of 20 pM.
